As usually defined, the Km is the substrate concentration at which the rate is half of its maximum.

Substrate in this data set: NCCC[C@H](N)C(=O)O
Nature of the data set: purified protein. Conditions: 200 uM PLP, 12.5 mM DTT, 250 mM Tris pH 7.5, 37 °C, 0.002% BRIJ-35 added, enzyme unstable, low activity.

B1: recombinant E. histolytica putative ornithine decarboxylase (ODC)-like protein (Entamoeba histolytica) (protein)
chain: MKQTSLEVKEFALNLISQFEPENQPLGFWIFDTEGVEKAVERWKKNMPTVRPCFAVKCNPEPHLVKLLGELGCGFDCASLNEIKEVLDLGFNPEDITYSQTFKPYNQLIEASHLGINHTIVDSIDEVQKIAKYAPKMGIMIRIMENDTSAGHVFGEKFGLHDDEVEIVLKEIKDKGLNLDGVHFHVGSDSHNSEVFTKALTKARNTVTLAEQFGMKPYLIDIGGGFSQVAPFEEFAATIEKTIKELEFPERTRFIAEPGRYMASNAFHLVSSLHGKRVRIQNGKKQIEYTSGDGLHGSFGCCIWFEKQKSCECITQKVNENTKMYESIIYGPSCNGSDKVATQELPEMEPGKDWLLFPNMGAYTISMATNFNGFEERNHVIYTLPLKSTKIIQIPKSIECNSVPSLNGIPHYA
Take B1: the Km amounted to 1500 µM.
